The assay addresses PfOAT (recombinant ornithine aminotransferase) (P. falciparum strain 3D7) (UniProt Q6LFH8).

These results are taken from article PMC2660430.

PfOAT (recombinant ornithine aminotransferase) (P. falciparum strain 3D7), sequence (Q6LFH8 whole entry): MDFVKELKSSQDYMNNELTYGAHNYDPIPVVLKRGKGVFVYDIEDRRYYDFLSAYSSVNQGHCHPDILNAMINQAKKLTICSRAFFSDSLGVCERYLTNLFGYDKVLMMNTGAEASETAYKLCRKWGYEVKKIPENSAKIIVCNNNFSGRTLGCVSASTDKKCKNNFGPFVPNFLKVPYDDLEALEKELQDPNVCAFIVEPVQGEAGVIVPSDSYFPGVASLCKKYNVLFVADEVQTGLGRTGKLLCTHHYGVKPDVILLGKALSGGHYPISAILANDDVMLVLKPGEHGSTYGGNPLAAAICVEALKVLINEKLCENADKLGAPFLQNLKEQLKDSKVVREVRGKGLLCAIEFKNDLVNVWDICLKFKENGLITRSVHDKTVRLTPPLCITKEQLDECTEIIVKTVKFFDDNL

Regarding “PfTrx1 (wild type thioredoxin) (from UniProt Q7KQL8 1-104) (natural protein)”, the OAT activity (ornithine aminotransferase assay) with equimolar wild type thioredoxin came to 75%.
